In article PMC4705684, “DNA binding fluorescent proteins for the direct visualization of large DNA molecules”:

B1: 52-mer random dsDNA (dsDNA)
DNA 1: CTACTAGCACAATCGACTGTACGGACCGATCGAGTCACTAGCAGTCTAGCAA
DNA 2: TTGCTAGACTGCTAGTGACTCGATCGGTCCGTACAGTCGATTGTGCTAGTAG

How the values were obtained:
[1] = system: FP(eGFP)-DBP (synthetic construct; expressed in E. coli BL21 (DE3)); test: EMSA; conditions: EMSA: 1x TE (10 mM Tris, 1 mM EDTA, pH 8.0) with 50% (v/v) glycerol, 10 ul, DNA stock ~31.4 nM, protein stocks 74 nM-148 uM, 0.5x TBE 4-20% PAGE, temperature …
DBP peptide KWKWKKA = target: T1, DBP peptide KWKWKKA (synthetic construct); test: UV absorbance quenching at 260 nm; stoichiometry 3 bp per DBP; EMSA: 1x TE (10 mM Tris, 1 mM EDTA, pH 8.0) with 50% (v/v) glycerol, 10 ul, DNA stock ~31.4 nM, protein stocks 74 nM-148 uM, 0.5x TBE 4-20% PAGE, temperature not stated; spectra in 1x TE; imaging in TE pH 8.0; conditions: label: none (EtBr post-stain in EMSA); blunt
T1 chain: KWKWKKA

| Molecule | Kd [1] | binding result (DBP peptide KWKWKKA) |
| --- | --- | --- |
| CTACTAGCACAATCGACTGTACGGACCGATCGAGTCACTAGCAGTCTAGCAA (double strand) [52-mer random dsDNA] | 14.7 µM | – |
| B1 | – | binds |
